# Source: PMC6547884, “Molecular Basis for poly(A) RNP Architecture and Recognition by the Pan2-Pan3 Deadenylase” (Cell, 2019)
# Legend:
# [1] = target: T1, Ccr4(110-837)-Caf1(146-433) complex (S. cerevisiae, UniProt P31384 110-837; P39008 146-433); test: SEC; reconstitution: purified Not1(754-1000) mixed with Ccr4(110-837)-Caf1(146-433) in equimolar amounts; Superdex200 16/60, 20 mM Tris pH 7.5, 250 mM NaCl, 1 mM DTT; conditions: both partners purified
# T1 construct: The complex is His-tagged; also called core yeast Ccr4-Caf1 nucleases; source: Trichoplusia ni Hi5 insect cells (pFastBac DUAL), purified (IMAC, heparin, SEC)
# T1 sequence (looked up) 1: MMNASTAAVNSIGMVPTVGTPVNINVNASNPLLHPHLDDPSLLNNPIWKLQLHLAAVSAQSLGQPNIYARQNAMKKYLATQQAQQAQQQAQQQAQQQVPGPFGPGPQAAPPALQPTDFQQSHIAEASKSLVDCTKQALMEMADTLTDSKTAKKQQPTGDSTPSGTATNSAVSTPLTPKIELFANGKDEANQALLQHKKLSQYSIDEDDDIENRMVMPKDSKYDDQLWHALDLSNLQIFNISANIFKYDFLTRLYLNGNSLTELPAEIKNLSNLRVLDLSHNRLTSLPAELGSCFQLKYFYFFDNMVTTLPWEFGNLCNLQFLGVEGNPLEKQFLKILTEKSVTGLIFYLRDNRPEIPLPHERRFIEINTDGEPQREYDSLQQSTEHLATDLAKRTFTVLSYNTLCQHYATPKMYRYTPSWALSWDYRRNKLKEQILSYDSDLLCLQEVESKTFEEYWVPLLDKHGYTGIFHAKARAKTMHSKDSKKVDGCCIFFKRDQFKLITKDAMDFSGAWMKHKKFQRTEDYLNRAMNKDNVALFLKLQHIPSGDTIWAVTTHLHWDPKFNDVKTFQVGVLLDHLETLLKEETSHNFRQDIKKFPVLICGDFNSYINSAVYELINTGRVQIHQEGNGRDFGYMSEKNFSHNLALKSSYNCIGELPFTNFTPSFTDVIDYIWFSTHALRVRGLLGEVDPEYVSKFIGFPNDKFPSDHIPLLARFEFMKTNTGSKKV
# T1 sequence (looked up) 2: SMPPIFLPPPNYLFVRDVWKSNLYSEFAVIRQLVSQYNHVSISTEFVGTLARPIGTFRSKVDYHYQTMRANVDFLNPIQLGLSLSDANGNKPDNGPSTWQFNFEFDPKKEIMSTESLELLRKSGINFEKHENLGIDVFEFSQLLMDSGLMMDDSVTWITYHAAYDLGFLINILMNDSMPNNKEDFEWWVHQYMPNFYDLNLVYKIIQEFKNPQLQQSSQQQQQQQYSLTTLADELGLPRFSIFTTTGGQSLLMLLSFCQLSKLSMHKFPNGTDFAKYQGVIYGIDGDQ
# [2] = target: the molecule itself; test: cryo-EM structure; substrate-free Pan2cat-Pan3Δ(1-162); Volta phase plate; nominal global resolution about 4.5 Å
# [3] = target: the molecule itself; test: cryo-EM structure; Pan2cat-Pan3 with 90A RNA and three Pab1, reconstituted as for SEC and purified on Superose 6; overall nominal resolution 4.8 Å, focused maps 4.7 and 4.5 Å
binder,measurement,setting,value
"Not1(754-1000) (domain or fragment, S. cerevisiae, UniProt P25655 754-1000, looked up, source: E. coli BL21 DE3, purified (IMAC, tag cleavage, heparin, SEC); not shown: SUMO, N-terminal, cleaved; His tag, N-terminal, cleaved) RSRPVQEMIPLKFFAVDEVSCQINQEGAPKDVVEKVLFVLNNVTLANLNNKVDELKKSLTPNYFSWFSTYLVTQRAKTEPNYHDLYSKVIVAMGSGLLHQFMVNVTLRQLFVLLSTKDEQAIDKKHLKNLASWLGCITLALNKPIKHKNIAFREMLIEAYKENRLEIVVPFVTKILQRASESKIFKPPNPWTVGILKLLIELNEKANWKLSLTFEVEVLLKSFNLTTKSLKPSNFINTPEVIETLSG",binding result,[1],binds
"Pan3Δ(1-162) (domain or fragment, S. cerevisiae, UniProt P36102 163-679, looked up, Pan3, S. cerevisiae, lacking residues 1-162; Pan3 chain of the substrate-free Pan2cat-Pan3Δ(1-162) cryo-EM sample; also called Pan3ΔN; source: Trichoplusia ni Hi5 insect cells, co-expressed with Pan2cat, purified as a complex) SIHTNANAHSFPFPSIANSGGININATDDNSNNMSMANNVPPPMQPPPIESSNLKYPRIYPPPHSLLQYHLYAPEQPSSLKSLLKPNERSADQLFIPNNIREDLTKKNLSILQVFPSSGKVIPSIVQDYFNLVPLNFNNNDFLNKTTLFKVFSNYDGKAYVLKRLPNIDKSMNPNKISKIYQIWSKINCTNLIKFRDIFQTTKFGDLSICLVFDYYPNSLSLYDYHFVNFPKFPITNNYLWIYLVQLTNVINSIHSQNLSIGNTLNWRKVLITGDPGRIKLSHCNFMDLLFNDDTDTVVSSGGSTIEGQQQLDYKYLGELLFNLSINIENSNNNTAPKEYRLEEITPQSIDDMRQIDDKFKDVLKYLISDNGDSKKSIHDLTSHFYDKMFMVLESSQTYTEYMESVLSRELENGRLFRLVNKLNCIFGRIESRIDINWSESGTKFPIILFYDYVFHQVDSNGKPIMDLTHVLRCLNKLDAGIQEKLMLVTPDELNCIIISYKELKDLIESTFRSITQ",stoichiometry N,[2],2
"Pan3 (S. cerevisiae, C-terminal deca-histidine tag) (natural protein, UniProt P36102 1-679, looked up, Pan3, S. cerevisiae; The Pan3 chain of m1, written alone for the pairs that touch in the structure and for co-purification; also called Pan3straight; Pan3bent; source: Trichoplusia ni Hi5 insect cells, co-expressed with Pan2, purified as a complex; not shown: His10, C-terminal, kept) MDKINPDWAKDIPCRNITIYGYCKKEKEGCPFKHSDNTTATTINDVPPPIDVGEATTPTMTSVPKFNAKVSASFTPMTVGSDSLTTVTNTTSAATNATGNIAMAATSATASTVNPMINPIVNSSLVNNNNNNSNISISIPTTASSSNYDPFNAPIFTPSSTSSIHTNANAHSFPFPSIANSGGININATDDNSNNMSMANNVPPPMQPPPIESSNLKYPRIYPPPHSLLQYHLYAPEQPSSLKSLLKPNERSADQLFIPNNIREDLTKKNLSILQVFPSSGKVIPSIVQDYFNLVPLNFNNNDFLNKTTLFKVFSNYDGKAYVLKRLPNIDKSMNPNKISKIYQIWSKINCTNLIKFRDIFQTTKFGDLSICLVFDYYPNSLSLYDYHFVNFPKFPITNNYLWIYLVQLTNVINSIHSQNLSIGNTLNWRKVLITGDPGRIKLSHCNFMDLLFNDDTDTVVSSGGSTIEGQQQLDYKYLGELLFNLSINIENSNNNTAPKEYRLEEITPQSIDDMRQIDDKFKDVLKYLISDNGDSKKSIHDLTSHFYDKMFMVLESSQTYTEYMESVLSRELENGRLFRLVNKLNCIFGRIESRIDINWSESGTKFPIILFYDYVFHQVDSNGKPIMDLTHVLRCLNKLDAGIQEKLMLVTPDELNCIIISYKELKDLIESTFRSITQ",stoichiometry N,[3],2
